One molecule from PMC3814348 (PLoS Pathogens, 2013) can be followed below.

For this experiment, the target named is Hrs, purified recombinant ( (human, mouse or zebrafish …, UniProt O14964 1-777)). The experiment in a line: pull-down. As to conditions: both partners purified.

B1: EsxGMt EsxHMt-6XHis heterodimer (complex)
chain 1: MSLLDAHIPQLVASQSAFAAKAGLMRHTIGQAEQAAMSAQAFHQGESSAAFQAAHARFVAAAAKVNTLLDVAQANLGEAAGTYVAADAAAASTYTGF
chain 2: MSQIMYNYPAMLGHAGDMAGYAGTLQSLGAEIAVEQAALQSAWQGDTGITYQAWQAQWNQAMEDLVRAYHAMSSTHEANTMAMMARDTAEAAKWGG
B1: the Kd – broadly, the equilibrium constant for the complex coming apart – was determined as 5.4 µM.
